The results in this text go back to patent US20190284242A1 (University of Washington, published 2019).

In assay [1] the target is T1, I52-33B.
T1 construct: also called dimer component of I52-33
T1 chain: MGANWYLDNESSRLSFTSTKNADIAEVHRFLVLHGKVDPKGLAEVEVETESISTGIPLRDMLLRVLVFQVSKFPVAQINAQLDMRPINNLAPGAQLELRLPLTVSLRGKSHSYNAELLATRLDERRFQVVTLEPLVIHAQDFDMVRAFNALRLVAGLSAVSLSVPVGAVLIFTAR
The assay is described as follows: size exclusion chromatography (Superose 6 10/300) of co-expressed, purified pair. Background: Size exclusion chromatography separates by hydrodynamic size, large species first.

For assay [2], the target named is T2, I32-06B.
T2 construct: also called trimer component of I32-06
T2 sequence (chain, as listed by the source): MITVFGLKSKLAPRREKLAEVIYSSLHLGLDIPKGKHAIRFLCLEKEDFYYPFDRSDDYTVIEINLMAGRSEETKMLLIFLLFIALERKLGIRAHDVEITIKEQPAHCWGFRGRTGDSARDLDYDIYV
The assay is described as follows: negative stain electron microscopy class averages of the assembled nanostructure.

B1: I52-33A (designed binder)
chain: MAVKGLGEVDQKYDGSKLRIGILHARWNRKIILALVAGAVLRLLEFGVKAENIIIETVPGSFELPYGSKLFVEKQKRLGKPLDAIIPIGVLIKGSTMHFEYICDSTTHQLMKLNFELGIPVIFGVLTCLTDEQAEARAGLIEGKMHNHGEDWGAAAVEMATKFN
notes: also called pentamer component of I52-33
In the case of B1, the binding result in assay [1] was “binds”.

B2: I32-06A (designed binder)
chain: MTDYIRDGSAIKALSFAIILAEADLRHIPQDLQRLAVRVIHACGMVDVANDLAFSEGAGKAGRNALLAGAPILCDARMVAEGITRSRLPADNRVIYTLSDPSVPELAKKIGNTRSAAALDLWLPHIEGSIVAIGNAPTALFRLFELLDAGAPKPALIIGMPVGFVGAAESKDELAANSRGVPYVIVRGRRGGSAMTAAAVNALASERE
notes: also called dimer component of I32-06
With B2, the binding result in assay [2] was “binds”.
